# *1 amine or outer side, *2 acyl side, *3 side chain or, on linkers, in order; H or OH if unused. Bridges are numbered along the chain shown (N, C = ends). [ ]: non-standard residue; d: D form. The star is where a group is joined. Pro(trans-4-NH2) = O=C([C@@H]1C[C@@H](N[*:3])CN1[*:1])[*:2]; C20 diacid = O=C(O)CCCCCCCCCCCCCCCCCCC(=O)*; γGlu = O=C(O)[C@H](CCC(=O)[*:2])N[*:1]; Hyp = O=C(O)[C@@H]1C[C@@H](O)CN1; NMeI = CC[C@H](C)[C@H](NC)C(=O)O; Aad = N[C@@H](CCCC(=O)O)C(=O)O; Orn = NCCC[C@H](N)C(=O)O; Sar = CNCC(=O)O
# T1: human amylin receptor 3 (hAMYR3), hCTR2 co-expressed with human receptor activity modifying protein 3 (hRAMP3) (human, UniProt P30988 25-474; O60896 24-148)
# T1 sequence (looked up) 1: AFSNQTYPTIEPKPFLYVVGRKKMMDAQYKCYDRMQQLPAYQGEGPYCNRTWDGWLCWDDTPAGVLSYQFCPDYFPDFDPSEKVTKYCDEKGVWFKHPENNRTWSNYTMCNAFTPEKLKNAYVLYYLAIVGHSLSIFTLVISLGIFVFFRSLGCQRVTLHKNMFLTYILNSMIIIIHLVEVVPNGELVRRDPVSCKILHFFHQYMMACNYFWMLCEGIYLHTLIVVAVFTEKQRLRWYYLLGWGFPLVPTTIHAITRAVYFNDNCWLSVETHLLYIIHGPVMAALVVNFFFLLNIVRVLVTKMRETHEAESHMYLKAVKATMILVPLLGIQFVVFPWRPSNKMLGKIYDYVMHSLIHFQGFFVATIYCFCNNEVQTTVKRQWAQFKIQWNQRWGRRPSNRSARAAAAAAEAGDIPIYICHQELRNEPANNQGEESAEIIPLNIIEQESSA
# T1 sequence (looked up) 2: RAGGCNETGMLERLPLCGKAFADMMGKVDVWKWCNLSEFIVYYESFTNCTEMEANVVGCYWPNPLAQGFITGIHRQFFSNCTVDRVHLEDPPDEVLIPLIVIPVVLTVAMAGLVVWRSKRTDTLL
# B1: [19CD]-isoGlu-R-C( )-GTAT-C( )-ATERLA-Aad-FLTRSSF-Gly(Me)-A-Ile(Me)-LSSTEVGSST-Hyp-NH2 (Compd. 43) (peptide)
# peptide: {C20 diacid}-[γGlu]RCGTATCATERLA[Aad]FLTRSSF[Sar]A[NMeI]LSSTEVGSST[Hyp]-NH2
# modifications: disulfide 3-8
# SMILES: CC[C@H](C)[C@@H](C(=O)N[C@@H](CC(C)C)C(=O)N[C@@H](CO)C(=O)N[C@@H](CO)C(=O)N[C@H](C(=O)N[C@@H](CCC(=O)O)C(=O)N[C@H](C(=O)NCC(=O)N[C@@H](CO)C(=O)N[C@@H](CO)C(=O)N[C@H](C(=O)N1C[C@H](O)C[C@H]1C(N)=O)[C@@H](C)O)C(C)C)[C@@H](C)O)N(C)C(=O)[C@H](C)NC(=O)CN(C)C(=O)[C@H](Cc1ccccc1)NC(=O)[C@H](CO)NC(=O)[C@H](CO)NC(=O)[C@H](CCCNC(=N)N)NC(=O)[C@@H](NC(=O)[C@H](CC(C)C)NC(=O)[C@H](Cc1ccccc1)NC(=O)[C@H](CCCC(=O)O)NC(=O)[C@H](C)NC(=O)[C@H](CC(C)C)NC(=O)[C@H](CCCNC(=N)N)NC(=O)[C@H](CCC(=O)O)NC(=O)[C@@H](NC(=O)[C@H](C)NC(=O)[C@@H]1CSSC[C@H](NC(=O)[C@H](CCCNC(=N)N)NC(=O)CC[C@H](NC(=O)CCCCCCCCCCCCCCCCCCC(=O)O)C(=O)O)C(=O)NCC(=O)N[C@@H]([C@@H](C)O)C(=O)N[C@@H](C)C(=O)N[C@@H]([C@@H](C)O)C(=O)N1)[C@@H](C)O)[C@@H](C)O
# B2: [19CD]-isoGlu-R-C( )-GTAT-C( )-ATERLAHFLTRSSF-Gly(Me)-A-Ile(Me)-LSSTEVGSSTP-NH2 (Compd. 46) (peptide)
# peptide: {C20 diacid}-[γGlu]RCGTATCATERLAHFLTRSSF[Sar]A[NMeI]LSSTEVGSSTP-NH2
# modifications: disulfide 3-8
# SMILES: CC[C@H](C)[C@@H](C(=O)N[C@@H](CC(C)C)C(=O)N[C@@H](CO)C(=O)N[C@@H](CO)C(=O)N[C@H](C(=O)N[C@@H](CCC(=O)O)C(=O)N[C@H](C(=O)NCC(=O)N[C@@H](CO)C(=O)N[C@@H](CO)C(=O)N[C@H](C(=O)N1CCC[C@H]1C(N)=O)[C@@H](C)O)C(C)C)[C@@H](C)O)N(C)C(=O)[C@H](C)NC(=O)CN(C)C(=O)[C@H](Cc1ccccc1)NC(=O)[C@H](CO)NC(=O)[C@H](CO)NC(=O)[C@H](CCCNC(=N)N)NC(=O)[C@@H](NC(=O)[C@H](CC(C)C)NC(=O)[C@H](Cc1ccccc1)NC(=O)[C@H](Cc1c[nH]cn1)NC(=O)[C@H](C)NC(=O)[C@H](CC(C)C)NC(=O)[C@H](CCCNC(=N)N)NC(=O)[C@H](CCC(=O)O)NC(=O)[C@@H](NC(=O)[C@H](C)NC(=O)[C@@H]1CSSC[C@H](NC(=O)[C@H](CCCNC(=N)N)NC(=O)CC[C@H](NC(=O)CCCCCCCCCCCCCCCCCCC(=O)O)C(=O)O)C(=O)NCC(=O)N[C@@H]([C@@H](C)O)C(=O)N[C@@H](C)C(=O)N[C@@H]([C@@H](C)O)C(=O)N1)[C@@H](C)O)[C@@H](C)O
# B3: [19CD]-isoGlu-R-C( )-GTAT-C( )-ATERLAHFLTRSSF-Gly(Me)-A-Ile(Me)-LSSTEVGSST-Apr-NH2 (Compd. 45) (peptide)
# peptide: {C20 diacid}-[γGlu]RCGTATCATERLAHFLTRSSF[Sar]A[NMeI]LSSTEVGSST[Pro(trans-4-NH2)]-NH2
# modifications: disulfide 3-8
# SMILES: CC[C@H](C)[C@@H](C(=O)N[C@@H](CC(C)C)C(=O)N[C@@H](CO)C(=O)N[C@@H](CO)C(=O)N[C@H](C(=O)N[C@@H](CCC(=O)O)C(=O)N[C@H](C(=O)NCC(=O)N[C@@H](CO)C(=O)N[C@@H](CO)C(=O)N[C@H](C(=O)N1C[C@H](N)C[C@H]1C(N)=O)[C@@H](C)O)C(C)C)[C@@H](C)O)N(C)C(=O)[C@H](C)NC(=O)CN(C)C(=O)[C@H](Cc1ccccc1)NC(=O)[C@H](CO)NC(=O)[C@H](CO)NC(=O)[C@H](CCCNC(=N)N)NC(=O)[C@@H](NC(=O)[C@H](CC(C)C)NC(=O)[C@H](Cc1ccccc1)NC(=O)[C@H](Cc1c[nH]cn1)NC(=O)[C@H](C)NC(=O)[C@H](CC(C)C)NC(=O)[C@H](CCCNC(=N)N)NC(=O)[C@H](CCC(=O)O)NC(=O)[C@@H](NC(=O)[C@H](C)NC(=O)[C@@H]1CSSC[C@H](NC(=O)[C@H](CCCNC(=N)N)NC(=O)CC[C@H](NC(=O)CCCCCCCCCCCCCCCCCCC(=O)O)C(=O)O)C(=O)NCC(=O)N[C@@H]([C@@H](C)O)C(=O)N[C@@H](C)C(=O)N[C@@H]([C@@H](C)O)C(=O)N1)[C@@H](C)O)[C@@H](C)O
# B4: [19CD]-isoGlu-R-C( )-GTAT-C( )-ATERLADFLTRSSF-Gly(Me)-A-Ile(Me)-LSSTEVGSFT-Hyp-NH2 (Compd. 42) (peptide)
# peptide: {C20 diacid}-[γGlu]RCGTATCATERLADFLTRSSF[Sar]A[NMeI]LSSTEVGSFT[Hyp]-NH2
# modifications: disulfide 3-8
# SMILES: CC[C@H](C)[C@@H](C(=O)N[C@@H](CC(C)C)C(=O)N[C@@H](CO)C(=O)N[C@@H](CO)C(=O)N[C@H](C(=O)N[C@@H](CCC(=O)O)C(=O)N[C@H](C(=O)NCC(=O)N[C@@H](CO)C(=O)N[C@@H](Cc1ccccc1)C(=O)N[C@H](C(=O)N1C[C@H](O)C[C@H]1C(N)=O)[C@@H](C)O)C(C)C)[C@@H](C)O)N(C)C(=O)[C@H](C)NC(=O)CN(C)C(=O)[C@H](Cc1ccccc1)NC(=O)[C@H](CO)NC(=O)[C@H](CO)NC(=O)[C@H](CCCNC(=N)N)NC(=O)[C@@H](NC(=O)[C@H](CC(C)C)NC(=O)[C@H](Cc1ccccc1)NC(=O)[C@H](CC(=O)O)NC(=O)[C@H](C)NC(=O)[C@H](CC(C)C)NC(=O)[C@H](CCCNC(=N)N)NC(=O)[C@H](CCC(=O)O)NC(=O)[C@@H](NC(=O)[C@H](C)NC(=O)[C@@H]1CSSC[C@H](NC(=O)[C@H](CCCNC(=N)N)NC(=O)CC[C@H](NC(=O)CCCCCCCCCCCCCCCCCCC(=O)O)C(=O)O)C(=O)NCC(=O)N[C@@H]([C@@H](C)O)C(=O)N[C@@H](C)C(=O)N[C@@H]([C@@H](C)O)C(=O)N1)[C@@H](C)O)[C@@H](C)O
# B5: [19CD]-isoGlu-R-C( )-GTAT-C( )-ATERLA-Aad-FLTRSSF-Gly(Me)-A-Ile(Me)-LSSTEVGS-Orn-T-Hyp-NH2 (Compd. 44) (peptide)
# peptide: {C20 diacid}-[γGlu]RCGTATCATERLA[Aad]FLTRSSF[Sar]A[NMeI]LSSTEVGS[Orn]T[Hyp]-NH2
# modifications: disulfide 3-8
# SMILES: CC[C@H](C)[C@@H](C(=O)N[C@@H](CC(C)C)C(=O)N[C@@H](CO)C(=O)N[C@@H](CO)C(=O)N[C@H](C(=O)N[C@@H](CCC(=O)O)C(=O)N[C@H](C(=O)NCC(=O)N[C@@H](CO)C(=O)N[C@@H](CCCN)C(=O)N[C@H](C(=O)N1C[C@H](O)C[C@H]1C(N)=O)[C@@H](C)O)C(C)C)[C@@H](C)O)N(C)C(=O)[C@H](C)NC(=O)CN(C)C(=O)[C@H](Cc1ccccc1)NC(=O)[C@H](CO)NC(=O)[C@H](CO)NC(=O)[C@H](CCCNC(=N)N)NC(=O)[C@@H](NC(=O)[C@H](CC(C)C)NC(=O)[C@H](Cc1ccccc1)NC(=O)[C@H](CCCC(=O)O)NC(=O)[C@H](C)NC(=O)[C@H](CC(C)C)NC(=O)[C@H](CCCNC(=N)N)NC(=O)[C@H](CCC(=O)O)NC(=O)[C@@H](NC(=O)[C@H](C)NC(=O)[C@@H]1CSSC[C@H](NC(=O)[C@H](CCCNC(=N)N)NC(=O)CC[C@H](NC(=O)CCCCCCCCCCCCCCCCCCC(=O)O)C(=O)O)C(=O)NCC(=O)N[C@@H]([C@@H](C)O)C(=O)N[C@@H](C)C(=O)N[C@@H]([C@@H](C)O)C(=O)N1)[C@@H](C)O)[C@@H](C)O
# Target: T1, human amylin receptor 3 (hAMYR3), hCTR2 …
# Test: cell-based or functional assay
row,Binder,hAMYR3 EC50 (nM); cAMP induction [nM]
1,B1,0.35
2,B2,0.14
3,B3,0.31
4,B4,0.34
5,B5,0.3
